The values that follow come from paper PMC7798916 (National Science Review, 2020).

Holding throughout (conditions): both partners purified
Experiment [1] concerns the target T1, SARS-CoV-2 RBD (recombinant receptor binding domain of the S glycoprotein) (SARS-CoV-2, UniProt P0DTC2). The experiment in a line: ELISA.
Experiment [2] has as its target T1, SARS-CoV-2 RBD (recombinant receptor …). The experiment is described as follows: BLI. A general note: BLI is a label-free optical method that tracks binding on a fibre tip over time.
The target is the same in experiment [3]. The experiment is described as follows: cell-based immunofluorescent blocking assay.

B1: HB27 (humanized monoclonal antibody, IgG) (antibody, V domains shown)
VH: VKLVESGGGLVKPGGSLRLSCAASGFTFTNYGMSWVRQAPGKRLEWVAEISSGGSYTYYPDTVTGRFTISRDNAKNTLYLQMNSLRAEDTAVYYCARFRYGGGGTVDYWGQGTLVTVSS
VL: IVLTQSPTLSLSPGERATLSCRASESVDNYGISFMNWFQQKPGQAPRLLIYAASNQGSGIPSRFSGSGSGTDFSLTISSLEPEDFAVYFCQQSKEVPRIFGQGTKVEIL
notes: also called HB27 IgG; source: CHO cell line
On to B1, for which the concentration giving a half-maximal response (EC50) was 0.5 nM in experiment [1] and 5 to 50 nM in experiment [3]. Moreover, the dissociation constant Kd in experiment [2] came out at 0.07 nM.

B2: HB27 Fab fragment (Fab, V domains shown)
VH: B1 VH
VL: B1 VL
As for B2, the dissociation constant Kd in experiment [2] stood at 0.27 nM.

As a reminder, the EC50 is the concentration at which the effect is half-maximal. Broadly, the Kd is the free concentration of one partner at which half of the binding sites on the other are occupied at equilibrium, for simple one-to-one binding.
